Paper PMC6954389 (Nucleic Acids Research, 2019)

Biological target: T1, His6-σ^A_(C170), C-terminal residues 359–528 of σ^A, wildtype (M. tuberculosis, UniProt P9WGI1 359-528)
T1 sequence: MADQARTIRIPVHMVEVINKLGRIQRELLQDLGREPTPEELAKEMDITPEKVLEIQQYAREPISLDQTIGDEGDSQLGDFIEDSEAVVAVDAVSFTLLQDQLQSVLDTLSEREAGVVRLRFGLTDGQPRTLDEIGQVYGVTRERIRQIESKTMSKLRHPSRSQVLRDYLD
Assay: pull-down

B1: tagless wildtype WhiB1, purified (from His6-SUMO-WhiB1) (natural protein)
chain: MDWRHKAVCRDEDPELFFPVGNSGPALAQIADAKLVCNRCPVTTECLSWALNTGQDSGVWGGMSEDERRALKRRNARTKARTGV
**Q.** Does B1 bind?
**A.** Result: binds
